± gives the uncertainty stated by the source.

The labels stand for the following.
B1: Zinc finger protein ZIC 2, residues 250 to 295; numbered along this chain, O95409 (parent)
chain: QCIKQELICKWIDPEQLSNPKKSCNKTFSTMHELVTHVSVEHVGGP

In this data set the parent is B1. Nature of the data set: abundance fitness (aPCA) (normalised: wild type 0, dead -1); higher = more abundant; growth selection in yeast, the domain comes from the species named. Particulars: Homo sapiens.
On to QCIKQELICKWSDPEQLSNPKKSCNKTFSTMHELVTHVSVEHVGGP [I12S], for which the abundance fitness was -0.022 ± 0.09. For the variant QCIKQELICKWHDPEQLSNPKKSCNKTFSTMHELVTHVSVEHVGGP [I12H], the abundance fitness was found to be 0.098 ± 0.14. The result for QCIKQELICKWADPEQLSNPKKSCNKTFSTMHELVTHVSVEHVGGP [I12A] reads -0.363 ± 0.093; that for QCIKQELICKWYDPEQLSNPKKSCNKTFSTMHELVTHVSVEHVGGP [I12Y], -0.175 ± 0.14.

On to QCIKQELICKWNDPEQLSNPKKSCNKTFSTMHELVTHVSVEHVGGP [I12N], for which the abundance fitness is -0.417 ± 0.16. Take QCIKQELICKWTDPEQLSNPKKSCNKTFSTMHELVTHVSVEHVGGP [I12T]: the abundance fitness came to 0.041 ± 0.097. Turning to QCIKQELICKWEDPEQLSNPKKSCNKTFSTMHELVTHVSVEHVGGP [I12E], the abundance fitness amounted to 0.111 ± 0.097. For the variant QCIKQELICKWLDPEQLSNPKKSCNKTFSTMHELVTHVSVEHVGGP [I12L], the abundance fitness was -0.551 ± 0.097. The result for QCIKQELICKWDDPEQLSNPKKSCNKTFSTMHELVTHVSVEHVGGP [I12D] reads -0.064 ± 0.12; that for QCIKQELICKWKDPEQLSNPKKSCNKTFSTMHELVTHVSVEHVGGP [I12K], -0.085 ± 0.13. Next, QCIKQELICKWPDPEQLSNPKKSCNKTFSTMHELVTHVSVEHVGGP [I12P]: 0.018 ± 0.1; QCIKQELICKWIDGEQLSNPKKSCNKTFSTMHELVTHVSVEHVGGP [P14G]: -0.237 ± 0.085. Next, QCIKQELICKWIDTEQLSNPKKSCNKTFSTMHELVTHVSVEHVGGP [P14T]: -0.377 ± 0.11; QCIKQELICKWIDYEQLSNPKKSCNKTFSTMHELVTHVSVEHVGGP [P14Y]: -0.499 ± 0.13; QCIKQELICKWIDCEQLSNPKKSCNKTFSTMHELVTHVSVEHVGGP [P14C]: -0.33 ± 0.11. QCIKQELICKWIDMEQLSNPKKSCNKTFSTMHELVTHVSVEHVGGP [P14M]: the abundance fitness is -0.334 ± 0.12. As for QCIKQELICKWIDREQLSNPKKSCNKTFSTMHELVTHVSVEHVGGP [P14R], the abundance fitness was -0.2 ± 0.087. The result for QCIKQELICKWIDHEQLSNPKKSCNKTFSTMHELVTHVSVEHVGGP [P14H] reads -0.199 ± 0.13; that for QCIKQELICKWIDKEQLSNPKKSCNKTFSTMHELVTHVSVEHVGGP [P14K], -0.885 ± 0.12. In the case of QCIKQELICKWIDQEQLSNPKKSCNKTFSTMHELVTHVSVEHVGGP [P14Q], the abundance fitness is -0.449 ± 0.12. Next, QCIKQELICKWIDLEQLSNPKKSCNKTFSTMHELVTHVSVEHVGGP [P14L]: -0.434 ± 0.09; QCIKQELICKWIDIEQLSNPKKSCNKTFSTMHELVTHVSVEHVGGP [P14I]: -0.975 ± 0.2; QCIKQELICKWIDSEQLSNPKKSCNKTFSTMHELVTHVSVEHVGGP [P14S]: -0.28 ± 0.092. In the case of QCIKQELICKWIDDEQLSNPKKSCNKTFSTMHELVTHVSVEHVGGP [P14D], the abundance fitness was -0.65 ± 0.13. For the variant QCIKQELICKWIDVEQLSNPKKSCNKTFSTMHELVTHVSVEHVGGP [P14V], the abundance fitness was -0.369 ± 0.095.

On to QCIKQELICKWIDNEQLSNPKKSCNKTFSTMHELVTHVSVEHVGGP [P14N], for which the abundance fitness was -0.123 ± 0.13. The result for QCIKQELICKWIDAEQLSNPKKSCNKTFSTMHELVTHVSVEHVGGP [P14A] reads -0.316 ± 0.094; that for QCIKQELICKWIDWEQLSNPKKSCNKTFSTMHELVTHVSVEHVGGP [P14W], -0.484 ± 0.096. Next, QCIKQELICKWIDFEQLSNPKKSCNKTFSTMHELVTHVSVEHVGGP [P14F]: -0.788 ± 0.15; QCIKQELICKWIDEEQLSNPKKSCNKTFSTMHELVTHVSVEHVGGP [P14E]: -0.216 ± 0.11; QCIKQELICKWIDPDQLSNPKKSCNKTFSTMHELVTHVSVEHVGGP [E15D]: -0.254 ± 0.11. With QCIKQELICKWIDPFQLSNPKKSCNKTFSTMHELVTHVSVEHVGGP [E15F], the abundance fitness is -0.23 ± 0.11. Next, QCIKQELICKWIDPMQLSNPKKSCNKTFSTMHELVTHVSVEHVGGP [E15M]: -0.079 ± 0.1; QCIKQELICKWIDPIQLSNPKKSCNKTFSTMHELVTHVSVEHVGGP [E15I]: 0.051 ± 0.11; QCIKQELICKWIDPLQLSNPKKSCNKTFSTMHELVTHVSVEHVGGP [E15L]: 0.104 ± 0.087. For QCIKQELICKWIDPCQLSNPKKSCNKTFSTMHELVTHVSVEHVGGP [E15C], the abundance fitness is -0.132 ± 0.11. In the case of QCIKQELICKWIDPAQLSNPKKSCNKTFSTMHELVTHVSVEHVGGP [E15A], the abundance fitness came to 0.077 ± 0.088. For the variant QCIKQELICKWIDPGQLSNPKKSCNKTFSTMHELVTHVSVEHVGGP [E15G], the abundance fitness is -0.145 ± 0.085. As to QCIKQELICKWIDPKQLSNPKKSCNKTFSTMHELVTHVSVEHVGGP [E15K], the abundance fitness is 0.077 ± 0.11. Consider QCIKQELICKWIDPHQLSNPKKSCNKTFSTMHELVTHVSVEHVGGP [E15H], for which the abundance fitness was -0.233 ± 0.11. Consider QCIKQELICKWIEPEQLSNPKKSCNKTFSTMHELVTHVSVEHVGGP [D13E], for which the abundance fitness is -0.235 ± 0.094. Next, QCIKQELICKWIPPEQLSNPKKSCNKTFSTMHELVTHVSVEHVGGP [D13P]: -0.387 ± 0.11; QCIKQELICKWIIPEQLSNPKKSCNKTFSTMHELVTHVSVEHVGGP [D13I]: -0.559 ± 0.22. The result for QCIKQELICKWICPEQLSNPKKSCNKTFSTMHELVTHVSVEHVGGP [D13C] reads -0.176 ± 0.12. For the variant QCIKQELICKWIGPEQLSNPKKSCNKTFSTMHELVTHVSVEHVGGP [D13G], the abundance fitness is -0.328 ± 0.087.

As for QCIKQELICKWITPEQLSNPKKSCNKTFSTMHELVTHVSVEHVGGP [D13T], the abundance fitness was -0.81 ± 0.13.

As to QCIKQELICKWIHPEQLSNPKKSCNKTFSTMHELVTHVSVEHVGGP [D13H], the abundance fitness is -0.216 ± 0.15.

As for QCIKQELICKWIMPEQLSNPKKSCNKTFSTMHELVTHVSVEHVGGP [D13M], the abundance fitness is -0.568 ± 0.12.

Consider QCIKQELICKWIVPEQLSNPKKSCNKTFSTMHELVTHVSVEHVGGP [D13V], for which the abundance fitness was -0.434 ± 0.091. With QCIKQELICKWISPEQLSNPKKSCNKTFSTMHELVTHVSVEHVGGP [D13S], the abundance fitness was -0.352 ± 0.1. On to QCIKQELICKWIKPEQLSNPKKSCNKTFSTMHELVTHVSVEHVGGP [D13K], for which the abundance fitness is -0.66 ± 0.13.

Take QCIKQELICKWIFPEQLSNPKKSCNKTFSTMHELVTHVSVEHVGGP [D13F]: the abundance fitness was determined as 0.041 ± 0.14. The result for QCIKQELICKWIWPEQLSNPKKSCNKTFSTMHELVTHVSVEHVGGP [D13W] reads -0.311 ± 0.093.

With QCIKQELICKWIAPEQLSNPKKSCNKTFSTMHELVTHVSVEHVGGP [D13A], the abundance fitness is -0.101 ± 0.091. QCIKQELICKWIRPEQLSNPKKSCNKTFSTMHELVTHVSVEHVGGP [D13R]: the abundance fitness was -0.442 ± 0.089.

For QCIKQELICKWIQPEQLSNPKKSCNKTFSTMHELVTHVSVEHVGGP [D13Q], the abundance fitness was -0.492 ± 0.12.

The values above are taken from the Human Domainome abundance scans (Beltran et al. 2025).
